How the values were obtained:
[1] = substrate: O=C(O)CC[C@H](C(=O)O)[C@@H](O)C(=O)O; experiment: Homoisocitrate dehydrogenase activity, NADH absorption at 340 nm; assay type: biochemical; settings: other: recombinant C. albicans HIcDH; pH 7.8; 20.0 °C
Procedure: (§1) Recombinant C. albicans homoaconitase (HA) and homoisocitrate dehydrogenase (HIcDH) containing oligoHis N-terminal tags were constructed and purified to near homogeneity as described earlier.
Reaction catalyzed by homoisocitrate dehydrogenase (HIcDH) was monitored by measuring the NADH absorption at 340 nm. The standard assay mixture contained 10 mM KCl, 5.0 mM MgCl2, 5 mM NAD^+ and 0.1 mM (2R,3S)-homoisocitrate in 50 mM Hepes-NaOH (pH 7.8) buffer. The reaction mixture with all required components except for the enzyme was preincubated for 3 min and the reaction was started by an addition of the recombinant His6-HIcDH (50 μg). The formation of NADH was measured for 30 s at 20 °C to determine initial reaction velocity. The initial rates were determined using a linear portion of the reaction progress curve.
(§2) The effects of novel compounds on the HA and HIcDH activity was determined by measuring the enzyme activity in standard assay mixtures containing various concentration of an inhibitor (0–10 mM). Inhibitory potential was expressed as IC50 values, i.e., concentrations causing 50% inhibition of enzyme activity in relation to control. All determinations were performed in triplicate.

[2] = substrate: O=C(O)CC[C@@](O)(CC(=O)O)C(=O)O; experiment: Homoaconitase activity, coupled reaction with HIcDH, NADH at 340 nm; assay type: biochemical, Candida albicans; settings: other: recombinant C. albicans HA; pH 8.5; 20.0 °C
Procedure: as §1
Activity of homoaconitase (HA) was measured by a coupled reaction with HIcDH by monitoring the reduction of NAD^+ to NADH at 340 nm. Reaction mixtures containing 50 mM Tris-HCl (pH 8.5), 50 mM KCl, 5 mM MgCl2, 20 mM dithiothreitol, 1 mM NAD^+ and 30 μg/mL of His6-HIcDH in a total volume of 0.9 mL were degassed under argon for 10 min, after which 0.05 mL of His6-HAC solution was added to a final concentration of 10 μg/mL. The reaction was initiated with addition of 0.05 mL of 50 mM (R)-homocitrate. The formation of NADH was measured for 30 s at 20 °C to determine initial reaction velocity. The initial rates were determined using a linear portion of the reaction progress curve.
as §2

B1: recombinant homoisocitrate dehydrogenase (HIcDH) (Candida albicans SC5314) (protein)
chain: STSSTTLKSLKIGLIPGDGIGREVIPAGKAVLENLPAKHDLQFEFVNLDAGFELFKKTGTALPDETVDVLKKECDGALFGAVSSPTTKVAGYSSPIVALRKKLGLYANVRPVKSVEGIGRPVDMVIVRENTEDLYIKEERVYKKEDGTKVAEAIKRITETASTRIAKMAYEIALQREAVRKGTSGKQLHEKPSVTVTHKSNVLSQSDGLFRETCRAVYDANANEYGGIEYKEQIVDSMVYRMFREPEIFDVVVAPNLYGDILSDGAAALVGSLGVVPSANVGDNFAIGEPCHGSAPDIEGKGISNPVATIRSTALMLEFMGYPEAAATIYQAVDANLAEDKIKTPDLGGNSTTQEVIDDIIRRF
**Q.** Which Km [1] does the source give for B1 here?
**A.** 74 µM

B2: recombinant homoaconitase (HA) (Candida albicans SC5314) (protein)
chain: MMLRFRSFSTTTHLLRGQNLTEKIVQKYAVGLQPSSKKVYSGDYVTIKPAHCMSHDNSWPVATKFMNLGASKVKDNRQIVCTLDHDVQNKSEQNLTKYTNIEKFAKSQGIDFYPAGRGIGHQIMIEEGYAFPLNLTVASDSHSNTYGGIGALGTPIVRTDAASIWATGQTWWQIPPVAKVELIGQLPKGVTGKDIIVALCGIFNNDEVLNHAIEFVGDDAISKLPIDYRLTIANMTTEWGALSGLFPVDETLVEFYQNRLKKLNKPDHPRINNQTIDQLINNKLTSDNDAVYAKHLQIDLSSLSPYISGPNSVKISNSLYDLSQQNIAINKAYLVSCTNSRLSDIQAAADIIKGHKVNPNVEFYVAAASSLVQKDAEQSGAWQTILDAGAKPLPAGCGPCIGLGTGLLKDGEVGISATNRNFKGRMGSKDALAYLASPEVVAASAVLGKIGGPEELNGEPVKQAPRIIKSIETESNSANEAESTSEEASGSIDILPGFPQSIEGELILCNADNINTDGIYPGKYTYQDDITKEQMAKVCMENYDSQFYSKTKPGDIIISGYNFGTGSSREQAATCILARGMKLIVAGSFGNIFSRNSINNALLTLEIPDLINKLRQQYEGNDELTIRTGWFLKWDVTKAQVTVVDGDDNLILTQKVGELGTNLQDIIVKGGLEGWVKSELKTNQ
notes: made in house
**Q.** Which Km [2] does the source give for B2 here?
**A.** 1500 µM

Reference: article PMC6268379, “Antifungal Activity of Homoaconitate and Homoisocitrate Analogs” (Molecules, 2012)
